From the nanobody polyreactivity screen of Harvey et al. (2022)

Assay: yeast display, Sf9 membrane polyspecificity reagent, FACS + sequencing; frameworks hold sequencing errors
Procedure, shortened: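 In a synthetic yeast display library (Saccharomyces cerevisiae BJ5465), nanobody expression was induced with galactose for 36–48 hours. FACS gates were set low and high (top ~1%) using anti-HA fluorescence for expression and streptavidin fluorescence for binding of the Sf9 membrane reagent. Each polyreactivity label is drawn from the gate of origin.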

Row | Sequence | polyreactivity (PSR sort gate)
1 | QVQLVESGGGLVQAGGSLRLSCAASGSIFRTYTMGWYRQAPGKEREFVAAISRSGGSTYYADSVKGRFTISRDNAKNTVYLQMNSLKPEDTAVYYCNARWGLGSYGYWGQGTQVTVSS | high polyreactivity
2 | QVQLVESGGGLVQAGGSLRLSCAASGFTFDYYTMGWYRQAPGKEREFVAAITWNGGSTYYADSVKGRFTISRYNAKNTVYLQMNSLKPEDSAVYYCAADTTYGINRREYWGQGTQVTVSS | low polyreactivity
3 | QVQLVESGGGLVQAGGSLRLSCAASGSTFVRNVMGWYRQAPGKERELVAAITRSGDTTYYADSVKGRFTISRDNAKNTVYLQMNSLKPEDTAVYYCAKRTFVRRGSIYPIDDYWGQGTQVTVSS | low polyreactivity
4 | QDQHVESGGGLVQAGGSLRLSCAASGRTFVFYAMGWYRQAPGKERELLAVIRVIGGSTKYADSVKGRFTISRDNAKNTVYLQMNSLKPVDTAVYYCAADGVVVVAAYMYYWGQGTQVTVSS | low polyreactivity
5 | QVQLVESGGGLVQAGGSLRLSCAASGSTFPYYTMGWYRQAPGKERELVAAICGRGTSTYYADSVKGRFTISRDNAKNTVYLQMISLKPEDTAVYYCAARRADVQPYSPVYAYGAYDYWGQGTQVTVSS | high polyreactivity
6 | QVLLVESGGGLVQAAGSLRLSSAASGRIFASYPLGWYRQAPGKERELVAAISKSGGRTYYADSVKGRFTISRDNAKNTVYVQMNSLKPVDTAVYDCAAFFWTRSGTPNFDYWGQGTQVTVSS | high polyreactivity
7 | QVQLVESGGGLVQAGGSLRLSCAASGIIFPFYVMGWYRQAPGKERELVAAITWSGDGTYYADSVKGRFTISRDNAKNTVYLQMNSLKPEDTAVYYCAAQWYYGGVKYYYWGQGTQVTVSS | low polyreactivity
8 | QVQLVESGGGLVQAGGSLRLSCAASGSTFYYYAMGWYSQAPGKERDLVAVISWGGGSTYYADSVKGRFTISRDNAKNTVYLQMNSLKPEDTAVYYCAAVYDAYQTTDEYDYWGQGTQVTVSS | low polyreactivity
9 | QVQLVESGGGLVQAGGSLRLSCAASGFNIYNNAMAWYRQAPGKERELVAAITSNGGRTYYADSVKGRFTISRDNAKNTFYLQMNSLKPEDTAVYYCAVDLYVWNVHYYYWGQGTQVTVSS | high polyreactivity
10 | QVQLVESGGGLVQAGGSLRLSCAASGFIFANYAMGWYRQAPGKERELVAAISSGRITYYADSVKGRFTISRDNAKNTVYLQMNSLKPEDTAVYYCAADVLYQDRSGEYHHWDGDYWGQGTQVTVSS | low polyreactivity
11 | QVQRVESGGGLVQAGGSLRLSCAASGSIFGPYAMVWYRQAPGKERELVAAITWSVGSTYYADSVKGRFTISRDNAKTTVYLQMNSLKPEDTAVYYCNAGVLGVYTSYNGDDYWGQGTQVTVSS | low polyreactivity
12 | QVQLVESGGGLVQAGGSLRLSCAATGSIFFINAMGWYRQAPGKERELVAAITWDGGSTYYADSVKGRFTISRVNAKNTVYLQMNSLKPEDTAVYYCAAVADYYDFISPPLDYWGQGTQVNVSS | low polyreactivity
13 | QVQLVESGGGLVQAGGSLRLSCAASGITFHVNAMGWYRQAPGKERELVARITTSGGSTSYADSVKGRFTISRDNAKNTVYLQMNSLKPEDTAVYYCAADLARYYSEYDYWGQGTQVTVSS | low polyreactivity
14 | QVQLVESGGGLVQAGGSLRLSCAASGRIFSRYAMGWYRQAPGKERELVASIRITGSTYYADSVKGRFTISRDNAKTTVYLQMNSLKPEDTAVYYCAAYQYRLGNIRLNYWGQGTQVTVSS | high polyreactivity
15 | QVQLVESAGGLVQAGGSLRLSCAASGSTFYAYVMGWYRPAPGKARELVAAISKGGGSTYYADSVKGRFTISRDNAKNTVYLQMNSLKPEDTAVYYCAAYASYSNYRKYNYWGQGTQVTVSS | high polyreactivity
16 | QVQLVDSGGGVVQAGGSLRLSCPASGRTFRGYAMGWYRQAPGKERELVAAISSGGSTYYADSVKGRFTISRDNAKNTVYLQMNSLKPEDTAVYYCAAGGPSTLDDYWGQGTQVTVSS | low polyreactivity
17 | QVQLVESGGGLVQAGGSLRLSCAASGSIFYYYAMGWYRQAPGKERELVAAINSGVSTYYADSVKGRFTISRDNAKNTVYLQMNSLKPEDTAVYYCAAPGHNLYGSWFSWTPDTYDYWGQGTQVTVSS | low polyreactivity
18 | QVQLVESGGGLVQAGGSLRLSCAASGLTFRVYAMGWYRQAPGKERELVASISRTGSTTYADSVKGRFTISRDNAKNTVYLQMNSLKPEDTAVYYCNARYYVLLWDSLAREYWGQGTQVTVSS | high polyreactivity
19 | QDQHVESAGGLVQAGGSLRLSCAATGFTFYYNPMRWYRQAPGKERELFASITRSGGPTYYADSVKGRFTISRDIAKHTVYLQMNSLKPEDTAVYYCARRYPGGYYWGHGTQVTVSS | high polyreactivity
20 | QVQRVESGGGLVQAGGSLRLSCAASGRIFALYARGWYRQAPGKEREWVAAISWSGGSTFYADSVKGRFTSSRDTAKNTVYLQMTSLKPEEPAVYYCNKDHLVYPSEFYYWGQGTQVTVSS | low polyreactivity
21 | QVQLVESGGGLVQAGGSLRLSCAASGSIFPWYAMGWYRQAPGKERELVAAITISGGSTHYADSEKGRFTISRDTAKNTVYLQLKSLKPEDTAVYYCAADFLPQSYNCYDYWGQGTQVTVSS | low polyreactivity
22 | QVQLVESGGGLVQAGGSLRLSCAASGSIFNSNAMGWYRQAPGTERELDAGISNIGGSTYYADSVKGRFTISRDYAKNTVYLQMNSLKPEDTAVYFCNADRLQPNRYYYWGQGTQVTVSS | high polyreactivity

Row | Sequence | polyreactivity (PSR sort gate)
23 | QVQLVESGGGFVQAGGSLRLSCAASGRIFGPYAMGWYRQAPGKERELVAVITNSGSTNYADSVKGRFTISRDNAKNTVYLQMNSLKPEDTAVYYCNRVEGGAYGSNFDYWGQVTQVTVSS | high polyreactivity
24 | QVQLVESGGGLVQAGGSLRLSCAASGSIFGHNTMGWYRQPPGKERELVAAITWNGGRTYYADSVKGRFTISRDNAKNTVYLQMNSLKPEDTAVYYCNAVVKTYGYKAHRYPSSRLNYWGQGTQVTVSS | high polyreactivity
25 | QVQLVESGGGLVQAGGSLRLSCAASGFTFSPNARGWYRQAPGKERELVAAISKGGSSTYYADSVKGRFTISRDNAKNTVYLQMNSLKPEDTAVYYCARPSTHKGYDYWGQGTQVTVSS | high polyreactivity
26 | QVQLVESGGGLVQAGGSLRLSCAASGFIFRRYTMGWYRQAPGKERELVATITRSVNTDYADSVKGRFTISRDNAKNTVYLHMNSLKPEDTAVYYCAARKYFYFPVAYDYWGQGTQVTVSS | high polyreactivity
27 | QVQLVESGGGLVQAGGSLRLSCAASGRNFSWNAMGWYRQAPGKERELVAAISRGASTNYADSVKGRFTISRDNAKNTDYLQMNSLKPEDTAVYYCNAVGPSLIYTYELSPTFDYWGQGTQVTVSS | low polyreactivity
28 | QVQLVQSGGGLVQAGGSLRLSCAASGSTFYTYGLGWYRQAPGKARQFVAAISYRGGSTYYADSVKGRFTISRDNAKNTVYLQMNSLKPEVTAVYYCYVDGVVVGTIRGGYDYWGQGTQVTVSS | low polyreactivity
29 | QVQLVESGGGLVQAGGSLRLSCAASGLIFPRYGMVWYRKAPGKERELVAAISWSGGSTYYADSVKGRFTISRDNAKNTVYLQMNSLKPEDTAVYYCAVLSNRGVYGSDYWGQGTQVTVSS | high polyreactivity
30 | QVQLVESGGGLVQAGGSLRLSCAASGLIFTVNAMGWYRQAPGKDRELVAAISGGDSTNYADSVKGRFTISRDNAKNTVYLQMNSLKPEDTAVYYCAVRGRAQYTSRRYGYWGQGTQVTVSS | high polyreactivity
31 | QVQLVESGGGLVQAGGSLRLSCAASGRIFQRNAMGWYRQAPGKEREFVAAITKSGGGTYADSVKGRFTISRDNAKNTVYLQMISLKPEDTAVYYCNVVPVWRPYSLINWQKHFGYWGQGTQVTVSS | high polyreactivity
32 | QVQLVESGGGLVQAGGSLRLSCAASGSILLGYDLGWYRQAPGKERELVASIDTNGGSTYYADSVKGRFTISRDNAKNTVYLQMNSLKPEDTAVYYCNADPSFVGGTYDYWGQGTQVTVSS | low polyreactivity
33 | QVQLVESGGGLVQAGGSLRLSCAASGRTFWAYAMGWYRQAPGKERELVAVIRGSGNTYYADSVKGRFTISRDNAKNTVYLQMNSLKPEDTAVYYCAASRAVTQYSGGGYWGQGTQVTVSS | high polyreactivity
34 | QVQLVESGGGLVQAGGSLRLICAASGSTFRYYAMGWYRQAPGKEREFVAAITKGGSRTSYADSVKGRFTISRDNAKNTVYLQMNSLKPEDTAVYYCATAYYGGASQRNYGYWGQGTQVTVSS | high polyreactivity
35 | QVQLVESGGGLVQAGGSLRLSCAASGLTFYYYVMGWYRQAPGKERELVAAISKSGGRTYYADSVKGRFTISRDNAKNTVYLQMNSLKPEDTAVYYCAALYTPNYTAYDSWGQGTQVTVSS | high polyreactivity
36 | QVQLVESGGGLVQAGGSLRLSCAASGFAFGVYAMGWDRQAAGKERELVAAITRSGGSTYYADSVKGRFTISRDNAKNTVYLQMNSLKPEDTAVYYCAARARDHYGYWGQGTQVTVSS | high polyreactivity
37 | QVQLVESGGGLVQAGGSLRLSCAASGTIVGYAMGWYRQAPGKERELVASNSWRVGSTYYADSVKGRFTISRDNAKNTVYLQMISLKPEDTAVYYCNAASYVFLYYPGGIYRDDYWGQGTQVTVSS | low polyreactivity
38 | QVQLVESGGGLVQAGGSLRLSCAASGRIFDYYAMGWYRQAPGKERELVAAINSGGSTYYADSVKGRFTISRDNAKNTVYLQMNSLKPEDTAVYYCNALRKSLRGGDYWGQGTQVTVSS | high polyreactivity
39 | QVQQQESGGGLVQAGGSLRLSCAASGSIFDGFNMGWYRQAPGKEREFVAAISYGASTYYADIVKGRFTDSRDNAKYSVYLQMIRLKPEDTAVYYCAVYDELYHVLVYWGRGTQVTVSS | low polyreactivity
40 | QVQLVESGGGLVQAGGSLRLSCAASGFIFSSNAMGWYRQAPGKERELVATISSDGSTNYADSVKGRFTISRDNAKNTVYLQMNSLKPEDTAVYYCAADLSLTIGTWTVLDTKYDYWGQGTQVTVSS | low polyreactivity
41 | QVQLVESGGGLVQAGGSLRLSCAASGRTSYGYAMGWYRQAPGKERELVAAITSSGGSTYYADSVKGRFTISRDNAKNTVYLEMNSLKPEDTAVYYCAASRVRYSYGYPYYYWGQGTQVTVSS | high polyreactivity
42 | QVQLEESGGGLVQAGGSLRLSCPASGRTFHGYAMGSYRQAPGKERELVAAITGTGGRTYYADSVKGRFTISRDNAKNTVYLQMNSLKPEDTAVYYCAARPWIKSGYWGQGTQVTVSS | high polyreactivity
43 | QVQLVESGGGLVQAGGSHRLSSAASGSIIPSYAMGWYRQAPGKERELVAAITTSGGNTFYADSVKGRFTISRDNAKNTVYLQMNSLKPEDTAVYYCAADYSPYTVEYDYWGQGTQVTVSS | low polyreactivity
